Data as given in paper PMC4282956 (Journal of immunology (Baltimore, Md. : 1950), 2014).

Molecular target: HLA-B*57:01.L82R/LF9 (human | )
Test: SPR

B1: Soluble KIR3DL1*001 (receptor)
chain: HMGGQDKPFLSAWPSAVVPRGGHVTLRCHYRHRFNNFMLYKEDRIHIPIFHGRIFQESFNMSPVTTAHAGNYTCRGSHPHSPTGWSAPSNPVVIMVTGNHRKPSLLAHPGPLVKSGERVILQCWSDIMFEHFFLHKEGISKDPSRLVGQIHDGVSKANFSIGPMMLALAGTYRCYGSVTHTPYQLSAPSDPLDIVVTGPYEKPSLSAQPGPKVQAGESVTLSCSSRSSYDMYHLSREGGAHERRLPAVRKVNRTFQADFPLGPATHGGTYRCFGSFRHSPYEWSDPSDPLLVSVTGNPS
  Kd: 35.5 ± 8.34 µM
